Earlier results on one sequence are cited in paper PMC11724285.

This data set deals with NF-κB (subunit not stated).

In the case of “GAUACUUGAAACUGUAAGGUUGGCGUAUA [NF-κB RNA aptamer (29 nt)]”, the Kd is 5 nM.
